This note sets out measurements from patent US20100028924A1, “Method Of Diagnosing Pon1-Hdl Associated Lipid Disorders” (Rappaport Family Institute Research in the Medical Sciences, priority 2006, published 2010).

For series [1], the system named is apoA-I rHDL. The experiment in a line: Inactivation kinetics of rePON1 192 isozymes bound to rHDL-apoA-I (EDTA/β-mercaptoethanol, residual phenyl acetate hydrolysis). The format is biochemical. The note with it: for A2 (amplitude) (%): as printed in Table 2 beside the SPR constants of the Δ20 variants. On the procedure:
(§1) FIG. 1 is a graph showing the inactivation kinetics of the wild-type rePON1-192K (SEQ ID NO:2), -192R (SEQ ID NO:4) and -192Q (SEQ ID NO:6) isozymes, bound to rHDL-apoA-I, or in buffer. Delipidated enzymes were incubated with a 50-fold excess of rHDL-apoA-I, or in activity buffer, and subjected to inactivation in the presence of EDTA (5 mM) and β-mercaptoethanol (10 mM) at 37° C. Residual activity at various time points was determined by initial rates of phenyl acetate hydrolysis (2 mM) and plotted as percent of the activity at time zero. Data were fitted to a single exponential for wild-type rePON1-192K on rHDL-apoA-I, and to double-exponentials for the remaining samples. The inactivation rate constants and amplitudes were derived from this fit;
(§2) Inactivation rates of rePON1s were measured as described [Gaidukov, L. and D. S. Tawfik, Biochemistry, 2005. 44(35): p. 11843-54]. Briefly, rePON1 samples were delipidated using Bio-Beads SM-2 (BioRad) and incubated in buffer, or with 50-fold molar excess of rHDL-apoA-I. EDTA (10 mM) and β-mercaptoethanol (20 mM) were added, and samples were incubated at 37° C. Residual activity at different time points was determined with 2 mM phenyl acetate, and inactivation rates were fitted to either mono- or double-exponentials [Gaidukov, L. and D. S. Tawfik, Biochemistry, 2005. 44(35): p. 11843-54].
(§3) The resultant inactivation profiles of wt rePON1 (SEQ ID NO: 2), rePON1-192Q (SEQ ID NO: 6) and rePON1-192R (SEQ ID NO: 4), were fitted to exponential curves as illustrated in FIG. 1.

Series [2] deals with apoA-I rHDL. The experiment in a line: Stimulation of enzymatic activity of rePON1 192 isozymes by rHDL-apoA-I. The format is biochemical. The note with it: for Vmax (%) activation factor: relative to delipidated enzyme (100%). From the text: The activity is presented in relation to the initial activity of the delipidated enzymes (percentage of stimulation). Data were fitted to the Langmuir saturation curve, from which the activation factor (Vmax) and the apparent affinity (Kapp) were derived;
Stimulated activity is presented as the percentage of the initial activity of the delipidated enzymes (corresponds to 100%). Data were fitted to the Langmuir saturation curve, from which the activation factor (Vmax) and the apparent affinity (Kapp) were derived;
Delipidated rePONs at 0.2 μM were incubated with a range of rHDL concentrations (0.1-10 μM) for 3 hrs at 37° C. Enzymatic activity was determined in activity buffer (50 mM Tris pH 8.0, 1 mM CaCl2) with substrates at 1 mM concentrations as described [Gaidukov, L. and D. S. Tawfik, Biochemistry, 2005. 44(35): p. 11843-54]. 5-(thiobutyl)-butyrolactone (TBBL) was applied at 0.25 mM, and product formation was monitored spectrophotometrically at 412 nm using 5,5′-dithio-bis-2-nitrobenzoic acid (DTNB) as described [Khersonsky, O. and D. S. Tawfik, Chembiochem, 2006. 7(1): p. 49-53].
Stimulation of the enzymatic activity was examined by incubating rePON1 isozymes with a range of rHDL concentrations (at the HDL/PON ratio of 0.5-50), and measuring the catalytic activity with various substrates as detailed hereinabove. FIGS. 3A-B illustrate the enzymatic activity of the rePON1 isozymes with δ-nonanoic lactone as substrate (FIG. 3A) and thiobutyl butiryl lactone (TBBL) as substrate (FIG. 3B). FIGS. 4A-D illustrate the enzymatic activity of the rePON1 isozymes with γ-dodecanoic lactone as substrate (FIG. 4A), δ-valerolactone as substrate (FIG. 4B), phenyl acetate as substrate (FIG. 4C) and paraoxon as substrate (FIG. 4D). Data were fitted to the Langmuir saturation curve to give the activation factor Vmax (in percent relative to the delipidated PON1) and the apparent affinity Kapp.

Series [3] can be described thus: Inactivation kinetics of rePON1 192 isozymes in activity buffer. Type of series: biochemical. The note with it: EDTA and β-mercaptoethanol, 37° C. On the procedure: as §1, §2, §3
Series [4] concerns the target apoA-I rHDL. The experiment in a line: Surface plasmon resonance binding of Δ20-rePON1 192 isozymes to immobilized rHDL-apoA-I. Conditions: for Kd / koff / kon: SPR, 25° C., biotinylated rHDL-apoA-I on streptavidin chip. On the procedure: FIGS. 2A-C are sensorgrams for the binding of wt Δ20-rePON1-192K—SEQ ID NO:8 (FIG. 2A), Δ20-rePON1-192R—SEQ ID NO:10 (FIG. 2B) and Δ20-rePON1-192Q—SEQ ID NO:12 (FIG. 2C) isozymes to rHDL-apoA-I. Biotinylated rHDL-apoA-I particles were immobilized onto the streptavidin surface (SA chip), and a series of PON1 concentrations were injected over the immobilized and blank surfaces to obtain the net binding response. Binding was performed at 25° C. Association and dissociation phases were fitted to a single exponential, from which kinetic rate constants were derived. PON1 concentrations in all the sensorgrams are (from bottom to top) 25, 40, 60, 80, 100, 150 and 200 nM;
Surface plasmon resonance (SPR) measurements: rHDL-apoA-I particles containing 0.7% of N-biotinyl-dipalmitoylphosphatidylethanolamine (N-biotynyl-DPPE; Avanti Polar Lipids) were prepared and purified as described [Gaidukov, L. and D. S. Tawfik, Biochemistry, 2005. 44(35): p. 11843-54]. SPR was performed on BIAcore 3000 (Uppsala, Sweden) as described [Gaidukov, L. and D. S. Tawfik, Biochemistry, 2005. 44(35): p. 11843-54]. Briefly, the biotinylated rHDL particles were adsorbed on streptavidin (SA5) chip, and Δ20-rePON1 isozymes were injected over the immobilized and blank surfaces to obtain the net binding response. Binding rate constants were obtained by fitting of association and dissociation phases to single exponentials as described [Gaidukov, L. and D. S. Tawfik, Biochemistry, 2005. 44(35): p. 11843-54].
The above results were further supported by affinity measurements using surface plasmon resonance. It was previously shown that HDL affinity of the intact rePON1 is very high (sub-nanomolar) and could not be determined accurately using surface plasmon resonance [Gaidukov, L., and Tawfik, D. S. (2005)Biochemistry 44, 11843-11854]. In contrast, binding affinity of the truncated variant lacking the first 20 amino acids of the hydrophobic N-terminus (Δ20-rePON1) could be amply determined. Therefore, the truncated variants of PON1 192 isozymes were prepared and their HDL binding affinities measured. Typical binding sensorgrams between Δ20-rePON1 isozymes and the immobilized HDL particles are portrayed in FIGS. 2A-C, and the derived rate and affinity constants are summarized in Table 2 herein below.

Where [5] appears, read: apoA-I rHDL, 50-fold molar excess, EDTA and β-mercaptoethanol, 37° C.
[6] abbreviates: substrate γ-dodecanoic lactone 1 mM.
Where [7] appears, read: substrate δ-nonanoic lactone 1 mM.

B1: rePON1-192Q: recombinant PON1 with glutamine at position 192, generated to mimic the human Q isozyme (protein)
chain: MAKLTALTLLGLGLALFDGQKSSFQTRFNVHREVTPVELPNCNLVKGVDNGSEDLEILPNGLAFISSGLKYPGIMSFDPDKSGKILLMDLNEEDPVVLELGITGNTLDISSFNPHGISTFTDEDNTVYLLVVNHPDSSSTVEVFKFQEEEKSLLHLKTIRHKLLPSVNDIVAVGPEHFYATNDHYFADPYLQSWEMHLGLAWSFVTYYSPNDVRVVAEGFDFANGINISPDGKYVYIAELLAHKIHVYEKHANWTLTPLKSLDFDTLVDNISVDPVTGDLWVGCHPNGMRIFYYDPKNPPGSEVLRIQDILSEEPKVTVVYAENGTVLQGSTVAAVYKGKLLIGTVFHKALYCEL
modifications: rePON1-192Q isozyme
notes: recombinant PON1 with glutamine at position 192, generated to mimic the human Q isozyme
Consider B1, for which the “A2 (%) (amplitude of second, slow inactivation phase = HDL-bound fraction)” value with apoA-I rHDL [1] (setting [5]) is 70%. Further, the figures for the “k1^inactiv (first, fast phase)” value (with apoA-I rHDL [1] (setting [5]); in series [3]) were 1.1 h⁻¹ and 5.2 h⁻¹, respectively. Also, the “k2^inactiv (second, slow phase)” value stood at 0.01 h⁻¹ in the series with apoA-I rHDL [1] (setting [5]) and 0.3 h⁻¹ in series [3]. Besides, the “reduction of Vmax compared to wt rePON1-192K” value with apoA-I rHDL [2] (all the substrates tested) is given as 50-80%. The “Kapp (apparent affinity for HDL stimulation)” value in the series on apoA-I rHDL [2] (substrate TBBL 0.25 mM) is 0.5 ± 0.1 µM; with apoA-I rHDL [2] (substrate phenyl acetate 1 mM), 0.8 ± 0.1 µM; in the series with apoA-I rHDL [2] (setting [6]) it was 0.6 ± 0.2 µM; in the series on apoA-I rHDL [2] (setting [7]), 0.6 ± 0.1 µM; with apoA-I rHDL [2] (substrate δ-valerolactone 1 mM), 1.1 ± 0.1 µM. For the same molecule, the “Vmax (%) activation factor” value with apoA-I rHDL [2] (substrate TBBL 0.25 mM) was determined as 340 ± 4%; with apoA-I rHDL [2] (substrate paraoxon 1 mM), 128 ± 1%; with apoA-I rHDL [2] (substrate phenyl acetate 1 mM), 165 ± 1%; in the series on apoA-I rHDL [2] (setting [6]) it was 382 ± 20%; in the series with apoA-I rHDL [2] (setting [7]), 778 ± 12%; in the series with apoA-I rHDL [2] (substrate δ-valerolactone 1 mM), 481 ± 7%.

B2: wt Δ20-rePON1-192K: truncated rePON1 variant lacking the first 20 amino acids of the hydrophobic N-terminus, 192K (protein)
chain: MAKSSFQTRFNVHREVTPVELPNCNLVKGVDNGSEDLEILPNGLAFISSGLKYPGIMSFDPDKSGKILLMDLNEEDPVVLELGITGNTLDISSFNPHGISTFTDEDNTVYLLVVNHPDSSSTVEVFKFQEEEKSLLHLKTIRHKLLPSVNDIVAVGPEHFYATNDHYFADPYLKSWEMHLGLAWSFVTYYSPNDVRVVAEGFDFANGINISPDGKYVYIAELLAHKIHVYEKHANWTLTPLKSLDFDTLVDNISVDPVTGDLWVGCHPNGMRIFYYDPKNPPGSEVLRIQDILSEEPKVTVVYAENGTVLQGSTVAAVYKGKLLIGTVFHKALYCEL
modifications: Delta20-rePON1-192K isozyme
notes: truncated rePON1 variant lacking the first 20 amino acids of the hydrophobic N-terminus, 192K
For B2, the “A2 (amplitude) (%)” value in the series on apoA-I rHDL [1] was found to be 100%. Further, at apoA-I rHDL [4], the dissociation constant Kd is 100 nM, the koff entry is “(2.0 ± 0.2) × 10^−2 s^−1” and the kon result was “(2.0 ± 0.3) × 10^5 s^−1 M^−1”. Further, the “fold higher HDL binding affinity than the Q isozyme” value in the series with apoA-I rHDL [4] (relative to the Q isozyme) was 3 fold.

B3: Δ20-rePON1-192R: truncated rePON1 variant lacking the first 20 N-terminal amino acids, 192R isozyme (protein)
chain: MAKSSFQTRFNVHREVTPVELPNCNLVKGVDNGSEDLEILPNGLAFISSGLKYPGIMSFDPDKSGKILLMDLNEEDPVVLELGITGNTLDISSFNPHGISTFTDEDNTVYLLVVNHPDSSSTVEVFKFQEEEKSLLHLKTIRHKLLPSVNDIVAVGPEHFYATNDHYFADPYLRSWEMHLGLAWSFVTYYSPNDVRVVAEGFDFANGINISPDGKYVYIAELLAHKIHVYEKHANWTLTPLKSLDFDTLVDNISVDPVTGDLWVGCHPNGMRIFYYDPKNPPGSEVLRIQDILSEEPKVTVVYAENGTVLQGSTVAAVYKGKLLIGTVFHKALYCEL
modifications: Delta20-rePON1-192R isozyme
notes: truncated rePON1 variant lacking the first 20 N-terminal amino acids, 192R isozyme
For B3, the “A2 (amplitude) (%)” value in the series on apoA-I rHDL [1] was 90%. In addition, on apoA-I rHDL [4], the Kd came to 110 nM, the koff result is “(2.9 ± 0.2) × 10^−2 s^−1” and the kon result is recorded as “(2.6 ± 0.3) × 10^5 s^−1 M^−1”.

B4: Δ20-rePON1-192Q: truncated rePON1 variant lacking the first 20 N-terminal amino acids, 192Q isozyme (protein)
chain: MAKSSFQTRFNVHREVTPVELPNCNLVKGVDNGSEDLEILPNGLAFISSGLKYPGIMSFDPDKSGKILLMDLNEEDPVVLELGITGNTLDISSFNPHGISTFTDEDNTVYLLVVNHPDSSSTVEVFKFQEEEKSLLHLKTIRHKLLPSVNDIVAVGPEHFYATNDHYFADPYLQSWEMHLGLAWSFVTYYSPNDVRVVAEGFDFANGINISPDGKYVYIAELLAHKIHVYEKHANWTLTPLKSLDFDTLVDNISVDPVTGDLWVGCHPNGMRIFYYDPKNPPGSEVLRIQDILSEEPKVTVVYAENGTVLQGSTVAAVYKGKLLIGTVFHKALYCEL
modifications: Delta20-rePON1-192Q isozyme
notes: truncated rePON1 variant lacking the first 20 N-terminal amino acids, 192Q isozyme
Take B4: in the series with apoA-I rHDL [1], the “A2 (amplitude) (%)” value turned out to be 70%. At apoA-I rHDL [4], the Kd was determined as 300 nM, the koff entry was “(4.2 ± 0.2) × 10^−2 s^−1” and the kon result is “(1.4 ± 0.5) × 10^5 s^−1 M^−1”.

In general, Kd refers to the concentration at which binding is half-saturated. Lower therefore signals tighter binding.
